Measurements reported in paper PMC5656322, “BAK1 is involved in AtRALF1-induced inhibition of root cell expansion” (PLoS Genetics, 2017).
Where no end group is shown, it is not given here.

Biological target: T1, BAK1-ECD (Arabidopsis thaliana, UniProt Q94F62)
T1 construct: Isothermal titration calorimetry (ITC) of the extracellular domain of BAK1 (BAK1-ECD) vs. AtRALF1; made in house; host or cells: Escherichia coli Rosetta DE3 or BL21
T1 sequence (Q94F62 26-225 limits assumed): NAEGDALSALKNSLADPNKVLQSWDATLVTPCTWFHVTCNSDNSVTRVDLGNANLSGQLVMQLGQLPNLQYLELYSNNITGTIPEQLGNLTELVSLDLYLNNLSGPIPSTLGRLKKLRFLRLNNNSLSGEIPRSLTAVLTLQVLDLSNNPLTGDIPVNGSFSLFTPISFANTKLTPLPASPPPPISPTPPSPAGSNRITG
Test: Isothermal titration calorimetry (ITC)
Format: binding
Text: Fig 6 AtRALF1 interacts physically with BAK1 protein. (A) The active AtRALF1 peptide interacts with the extracellular domain (ECD) of BAK1 (BAK1-ECD) in yeast. The AtRALF1 protein fused to the GAL4 DNA-binding domain (AtRALF1-pGBKT7) was used as bait to test its interaction with the extracellular domain of the proteins fused to the GAL4 activation domain (pGADT7): BAK1 (BAK1-ECD), BAK7 (BAK7-ECD), BRI1 (BRI1-ECD) and FLS2 (FLS2-ECD). (B) Blueprint showing the truncated proteins from the extracellular domain of BAK1 tested in the two-hybrid assay. The extracellular domain of BAK1 comprises leucine zippers (LZ), 5 leucine rich-regions (LRRs) and a proline-rich region (pro-rich). (C) AtRALF1-pGBKT7 was used as bait to test its interaction with truncated proteins fused to the GAL4 activation domain (pGADT7). The transformed yeast cells in (A) and (C) were selected on a synthetic complete medium lacking leucine, tryptophan and histidine to test interactions. (D, E) Co-immunoprecipitation (Co-IP) in vitro between the extracellular domain of BAK1 (HA-BAK1-ECD) and AtRALF1 recombinant purified proteins. HA-BAK1-ECD was detected with an anti-HA antibody. AtRALF1 was detected with an anti-RALF antibody. (F) Recombinant AtRALF1 is co-immunoprecipitated with the BAK1-GFP protein expressed in tobacco. BAK1-GFP was detected with an anti-GFP antibody. […] (G) Isothermal titration calorimetry (ITC) of the extracellular domain of BAK1 (BAK1-ECD) vs. AtRALF1 in ITC buffer (15 mM HEPES, pH 6.8). ITC experiments were simulated using 28 injections of BAK1-ED (0.7 mM, vol 10 μL) on AtRALF1 (0.03 mM vol cell = 1.4 mL) at 25°C. Kd = dissociation constant; N = number of binding sites.
ITC was performed using a VP ITC with a 1.4 ml standard cell and a 293 μl titration syringe. Proteins were dissolved in ITC buffer (15 mM HEPES (4-(2-hydroxyethyl)-1-piperazineethanesulfonic acid, pH 6.8) and the experiments were performed at 25°C. Molar protein concentration for BAK1-ECD and AtRALF1 were calculated using their molecular weight of 25,654.04 and 7,631 Da, respectively (determined by HPLC). The concentrations for the complex titrations were 0.7 mM of protein (BAK1-ECD) in the syringe and 0.03 mM of ligand (AtRALF1) in the cell at time intervals of 300 s (28 injections of volume 10 μl) to ensure that the titration peak returned to the baseline.
ITC data were corrected for the heat of dilution by subtracting the mixing enthalpies for titrant solution injections into protein free ITC buffer. Data were analyzed using the Origin software (version 7.0) as provided by the manufacturer. Independent experiments were repeated three times with similar results.

Substance	number of binding sites (ITC experiment 1 of 3)	number of binding sites (ITC experiment 2 of 3)	N (number of binding sites) (representative experiment, Fig 6G, 15 mM HEPES, pH 6.8, 25°C) [sites]	interaction with BAK1-ECD by ITC (BAK1-ECD 0.7 mM into 0.03 mM peptide, 15 mM HEPES, pH 6.8, 25°C)
AtRALF1: root-specific RALF isoform in Arabidopsis; recombinant peptide hormone produced in E. coli (ATTKYISYQSLKRNSVPCSRRGASYYNCQNGAQANPYSRGCSKIARCRS; ends and bridges not checked; cysteine pairing not given here)	1.27	1.5	1.27	
RALF1(9–49): inactive AtRALF1 peptide which has a deletion of the first 8 amino acids (QSLKRNSVPCSRRGASYYNCQNGAQANPYSRGCSKIARCRS; ends and bridges not checked; cysteine pairing not given here; UniProt Q9SRY3 80-120, looked up, fragment)				no interaction between the inactive analog and BAK1-ECD
